The values below come from publication PMC13337110, “Pericentrosomal Redistribution of the Endoplasmic Reticulum Ensures Organelle Symmetric Inheritance and Mitotic Progression” (Advanced Science, 2026).

The target of the experiment is T1, 2×Strep-HA-RTN4B (human, UniProt Q9NQC3-2 1-373, when from mitotic cells: mitotic phosphorylation sites S15, S107, S111, S121, S129, S152).
T1 construct: Reticulon 4, isoform RTN4B, human; cDNA GenBank NM_153828.3 amplified from a U2OS cDNA library; N-terminal cytoplasmic region 1-185 and C-terminal RHD; Tag ends read from the printed construct name; also called Reticulon 4; 2×Strep-HA-RTN4B wild-type (WT); source: HeLa, stably expressed; not shown: 2×Strep, N-terminal, kept; HA, N-terminal, kept
T1 sequence (looked up): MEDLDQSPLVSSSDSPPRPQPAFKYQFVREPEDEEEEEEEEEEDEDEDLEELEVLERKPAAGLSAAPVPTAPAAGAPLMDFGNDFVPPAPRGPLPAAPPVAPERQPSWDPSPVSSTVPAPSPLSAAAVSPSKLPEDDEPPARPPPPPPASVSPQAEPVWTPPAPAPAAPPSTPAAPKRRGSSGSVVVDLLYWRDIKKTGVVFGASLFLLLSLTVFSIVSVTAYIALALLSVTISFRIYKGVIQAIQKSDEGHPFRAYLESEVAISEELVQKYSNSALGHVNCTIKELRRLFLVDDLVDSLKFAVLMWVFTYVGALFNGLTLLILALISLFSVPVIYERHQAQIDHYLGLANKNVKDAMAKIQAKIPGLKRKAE
Description: pull-down; in vitro binding: 2×Strep-HA-RTN4B on Strep-Tactin XT beads incubated with purified GST-Rab11A, 2 h at 4°C; eluted with Strep-Tactin XT elution buffer; Western blot and Coomassie. The following applies: both partners purified.

B1: GST-Rab11A (natural protein, human, UniProt P62491-1 1-216, looked up)
chain: MGTRDDEYDYLFKVVLIGDSGVGKSNLLSRFTRNEFNLESKSTIGVEFATRSIQVDGKTIKAQIWDTAGQERYRAITSAYYRGAVGALLVYDIAKHLTYENVERWLKELRDHADSNIVIMLVGNKSDLRHLRAVPTDEARAFAEKNGLSFIETSALDSTNVEAAFQTILTEIYRIVSQKQMSDRRENDMSPSNNVVPIHVPPTTENKPKVQCCQNI
notes: Rab11A, human; cDNA GenBank NM_004663.5 in pGEX-6P-1; also called Recombinant Rab11A; GST-tagged Rab11A; source: E. coli Rosetta (DE3), purified (Glutathione Sepharose 4B; eluted with reduced glutathione or kept on beads); not shown: GST, N-terminal, kept
On to B1, for which the binding result is on record as “binds”.
